Assay results reported in patent US7078511B1.

Key:
[1] = molecular target: Drosophila melanogaster scavenger receptor type CI (Drosophila melanogaster)
[2] = molecular target: hamster scavenger receptor type BI (hamster); assay: ^125I-AcLDL (5 µg/ml) binding at 4° C. to ldlA[haSR-BI] cells, no competitor

^125I-AcLDL Degradation (% No Competitor) (% No Competitor) [1] | 125I-AcLDL binding (ng/mg cell protein) [2] | Substance
34 | – | Poly D-glutamic acid (peptide)
97.6 | – | low density lipoprotein
4.8 | 293 | acetylated low density lipoprotein
